Positions count from the first letter of the chain named. Where two headings read alike, the source gives them in different places.
T1: human PD-L2 on CHO cells (CHO-hPD-L2 cells) (human, UniProt Q9BQ51 20-273)
T1 construct: whole, on cells; also called CHO-K1-PD-L1/PD-L2
T1 sequence (looked up): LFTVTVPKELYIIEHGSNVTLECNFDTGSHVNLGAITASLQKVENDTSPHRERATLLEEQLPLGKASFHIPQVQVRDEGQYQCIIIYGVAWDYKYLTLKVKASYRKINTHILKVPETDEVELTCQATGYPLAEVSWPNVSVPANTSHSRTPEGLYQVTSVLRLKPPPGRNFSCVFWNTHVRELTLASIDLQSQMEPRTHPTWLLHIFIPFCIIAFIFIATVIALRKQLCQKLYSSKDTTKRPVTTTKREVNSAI

T2: human PD-L2 protein (purchased from AcroBiosystems) (human, UniProt Q9BQ51 20-219, limits assumed, biotinylated in the blocking assays)
T2 construct: Bought soluble protein; also called PD-L2 antigen; biotinylated human PD-L2 protein
T2 sequence (looked up): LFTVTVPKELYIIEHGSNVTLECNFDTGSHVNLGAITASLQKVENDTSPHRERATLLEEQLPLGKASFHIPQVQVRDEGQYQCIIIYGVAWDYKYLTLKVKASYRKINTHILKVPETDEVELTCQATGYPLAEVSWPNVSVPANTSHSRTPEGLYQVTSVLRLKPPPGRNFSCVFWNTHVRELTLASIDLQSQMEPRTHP

B1: HZ-D-Na-96-3 (antibody, V domains shown)
VH: EVQLVESGGGLVQPGGSLRLSCAASGRTFSSMTIGWFRQAPGKEREFVSGIGWTSGLTVYADSVKGRFTISRDNAKNSMYLQMNSLKPEDTAVYYCAADSMNRGQFDYWGQGTLVTVSS
notes: Humanized anti-PD-L2 heavy chain antibody: VHH linked to human IgG1 (LALA) Fc; the junction is not described
B2: HZ-D-Na-96-2 (antibody, V domains shown)
VH: B1 VH with E44G, R45L, M79L
notes: as for B1
B3: D-Ye-31 (antibody, V domains shown)
VH: QVQLQESGGGLVQAGGSLGLSCAASGRTFSSMTIGWFRQTPGKEREFVAGIGWSTSKTVYKDSVKGRFTISTDNAKKTVYLQMNNLKPEDTAVYYCAADSMNRGQFDYWGQGTQVTVSS
notes: Anti-PD-L2 heavy chain antibody: VHH linked to human IgG1 (LALA) Fc; the junction is not described
B4: D-Na-64 (antibody, V domains shown)
VH: B3 VH with Q1E, Q5V, A14P, G19R
notes: as for B3
B5: D-Ye-10 (antibody, V domains shown)
VH: B3 VH with G16A, G19R, A24S, A98E
notes: as for B3
B6: D-Ye-22 (antibody, V domains shown)
VH: QVQLQESGGGLVQAGDSLRLSCIGSRRTFTMAWFRQAPGKEREFVAGIWGPADHTIYANSVKGRFACSRDDSTNTIFLQMNSLELEDTALYLCAAADSSGDDFEYWGQGTQVTVSS
notes: as for B3
B7: D-Ye-32 (antibody, V domains shown)
VH: QVQLQESGGGLVQAGGSLRLSCAASGSVGSINAMAWFRQAPGKQRDVVAHMPSGGSTHYADSVKGRFTVSRDNAKNTVYLQMNSLKAEDTAVYYCWAAGLGWGQGTQVTVSS
notes: as for B3
B8: D-Na-58 (antibody, V domains shown)
VH: QVQLVESGGGLVQAGGSLTLSCTASGRTFSSYAMAWFRQAPGKERELLVTISRSGSTTYYLDSVKGRFTISRDNAKNTVYLQMNSLKPEDTAVYYCAAKRSLQDEVYYWGQGTQVTVSS
notes: as for B3
B9: D-Na-87 (antibody, V domains shown)
VH: QVQLVESGGGLVQPGGSLRLSCAASGFAFDAYAMTWVRQAPGKGLEFLSRIYSHGSKIIYAGSVKGRFTIFRDNAKNTVYLQMNSLKPEDTAVYYCAAGPDNIPTTGEKYDFWGQGTQVTVSS
notes: as for B3
B10: D-Na-89 (antibody, V domains shown)
VH: QVQLVESGGGLVQAGGSLRLSCAASGLTFINYAMGWFRQAPGKEREFVAAISWAGGTTSYADSVKDRFSITRDSAKDTVYLQTNSLKPEDTAVYYCAANSRILSRTAKDYDYWGQGTEVTVSS
notes: as for B3
B11: D-Na-90 (antibody, V domains shown)
VH: B10 VH with E118Q
notes: as for B3
B12: K-Yr-13&14-09 (antibody, V domains shown)
VH: QVQLVESGGGLVKAGDSLRLSCAASGRTFTIYAIGWFRQAPGKEREFVATINWSGSMTNYTDSVKGRFTISRDNAKNTVYLQMNSLKPDDTAIYYCAAYVGATISTAHSRYDYWGQGTLVTVSA
notes: Anti-PD-L1 heavy chain antibody: VHH linked to human IgG1 (LALA) Fc; the junction is not described
B13: D-Na-67 (antibody, V domains shown)
VH: QVQLVESGGGLVQAGGSLRLSCAASGGLTFINYAMGWFRQAPGKEREFVAAISRFGGTTSYADSVKDRFSITRDVAKDTVYLQTNSLKPEDTAVYYCAANSRILSRTAADYDYWGQGTQVTVSS
notes: as for B3
B14: D-Na-78 (antibody, V domains shown)
VH: QVQLVESGGGLVQAGGSLRLSCEASGVISINYAMAWFRQAPGKEREFVAAISRFGVTTSYADSVKDRFSIGITRDNAKDTMYLQTKSLKPEDTAVYYCAANSRILSRTAKDYDYWGQGTQVTVSS
notes: as for B3
B15: D-Na-80 (antibody, V domains shown)
VH: EVQLVESGGGLVQAGGSLRLSCAVSGVSFINYAMGWFRQAPGKEREFVAAISRFGGTTSYADSVKDRFSITTDTKDTVYLQTNSLKPEDTAVYYCAANSRILSRTAKDYDYWGQGTQVTVSS
notes: as for B3
B16: D-Ye-29 (antibody, V domains shown)
VH: QVQLQESGGGLVQPGGSLRLSCAASGSEFSFIPTGWYRQTPGKQRDLVAVFTSGGLTNYADSVKGRFTISRNNTKNIVYLQMNSLKPEDTAVYYCSGVPGPHYNGPTSGINYWGQGTQVTVSS
notes: as for B3
B17: HZ-D-Ye-29-3 (antibody, V domains shown)
VH: B16 VH with Q1E, Q5L, T40A, D46E, N72D, T74S, I77T, K86R, P87A
notes: as for B1
B18: K-Yr-13&14-16 (antibody, V domains shown)
VH: EVQLVESGGGLVQAGGSLRLSCAASTRTFITYAMGWFRQAPGKEREFVASINWSGASTYYADSVKGRFTISRHNAKNTVYLQMNSLKPEDTAVYYCAAALSAVVVTQILDYDYWGQGTLVTVSS
notes: as for B12

Columns and labels:
[1] = target: T1, human PD-L2 on CHO cells (CHO-hPD-L2 …); test: flow cytometry on CHO-hPD-L2 cells, PE anti-human IgG-Fc, median fluorescence intensity (MFI)
Experimental: (§1) The expanded CHO-hPD-L2 cells were adjusted to a cell density of 2×10⁶ cells/ml, and were added to 96-well flow plate at 100 μl/well, and centrifuged for later use. […] The diluted samples were added to the 96-well flow plate with cells at 100 μl/well, incubated at 4° C. for 30 min, and washed twice with PBS. Goat F(ab')2 anti-human IgG-Fc (PE) (purchased from Abcam) diluted 100 times with PBS was added at 100 μl/well, incubated at 4° C. for 30 min, and washed twice with PBS. PBS was added at 100 μl/well to resuspend cells, and detection was performed on a CytoFlex (Bechman) flow cytometer and the corresponding MFI was calculated.

[2] = target: T2, human PD-L2 protein (purchased from …); test: BLI (ForteBio), antibody on AHQ sensor, 100 nM PD-L2 antigen, 1:1 model
Experimental: (§2) ForteBio affinity determination was carried out according to existing methods (Estep, P et al., High throughput solution-based measurement of antibody-antigen affinity and epitope binning. MAbs, 2013.5(2): p. 270-8). In short, the sensor was equilibrated for 30 min under the line of the analysis buffer, and then the baseline was established after online detection for 60 s. The purified antibody obtained as described above was loaded onto the AhQ sensor online. […] Kinetic analysis was performed using a 1:1 binding model.
The experimental method was the same as that in Example 1.5.

[3] = target: T2, human PD-L2 protein (purchased from …); test: flow cytometry blocking assay: antibody pre-incubated with biotinylated human PD-L2 protein (1 ug/ml), binding of PD-L2 to CHO-hPD-1 cells read as MFI (APC)
Experimental: (§3) CHO cells overexpressing human PD-1 (CHO-hPD-1 cells) were generated by transfection of the pCHO1.0 vector (purchased from Invitrogen™) cloning human PD-1 cDNA (purchased from Sino Biological). The expanded CHO-hPD-1 cells were adjusted to a cell density of 2×10⁶ cells/ml, and were added to 96-well flow plate at 100 μl/well, and centrifuged for later use. The purified mutant sample was diluted with PBS and diluted 3 times from […] for 12 points. […] The co-incubation sample was added to the above-mentioned 96-well flow plate with cells 100 μl/well, incubated at 4° C. for 30 min, and washed twice with PBS. APC goat anti-mouse IgG (minimum×reactive) antibody diluted 100 times with PBS (purchased from Biolegend®) was added at 100 μl/well, incubated at 4° C. for 30 min, and washed twice with PBS. PBS was added at 100 μl/well to resuspend cells, and detection was performed on a CytoFlex (Bechman) flow cytometer and the corresponding MFI was calculated.

[4] = target: T2, human PD-L2 protein (purchased from …); test: BLI (ForteBio), antibody on AHQ sensor, 100 nM PD-L2 antigen, 1:1 model; remark: listed apart in the source
Experimental: as §2

[5] = target: T2, human PD-L2 protein (purchased from …); test: flow cytometry blocking assay: antibody pre-incubated with biotinylated human PD-L2 protein (1 ug/ml), binding of PD-L2 to CHO-hPD-1 cells read as MFI
Experimental: as §3

[6] = target: T1, human PD-L2 on CHO cells (CHO-hPD-L2 …); test: flow cytometry on CHO-hPD-L2 cells, PE anti-human IgG-Fc, median fluorescence intensity (MFI); remark: listed apart in the source
Experimental: as §1

[7] = target: T3, human PD-L1 protein (purchased from AcroBiosystems) (human, UniProt Q9NZQ7 19-238, biotinylated in the blocking assay); test: BLI (ForteBio), antibody on AHQ sensor, 100 nM PD-L1 antigen, 1:1 model
T3 construct: Bought soluble protein; also called PD-L1 antigen; biotinylated human PD-L1 protein
T3 sequence (Q9NZQ7 19-238 limits assumed): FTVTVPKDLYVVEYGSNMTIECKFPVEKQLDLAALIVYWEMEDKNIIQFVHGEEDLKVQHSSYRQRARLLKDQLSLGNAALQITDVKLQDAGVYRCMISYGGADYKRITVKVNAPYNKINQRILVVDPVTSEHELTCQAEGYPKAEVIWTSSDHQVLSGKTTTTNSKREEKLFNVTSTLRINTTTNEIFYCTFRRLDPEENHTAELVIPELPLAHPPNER
Experimental: as §2

Binder | Kd [4] [nM] | koff [4] [s⁻¹] | kon [4] [M⁻¹ s⁻¹] | IC50 (read off the curve) [5] [nM] | other results
B1 |  |  |  |  | EC50 (read off the curve) [1]: ~3 nM; Kd [2]: 1.99 nM; koff [2]: 0.00059 s⁻¹; kon [2]: 297000 M⁻¹ s⁻¹; IC50 (read off the curve) [3]: ~2 nM
B2 |  |  |  |  | Kd [2]: 1.58 nM; koff [2]: 0.000512 s⁻¹; kon [2]: 323000 M⁻¹ s⁻¹; IC50 (read off the curve) [3]: ~2 nM
B3 | 5.04 | 0.000644 | 128000 |  | 
B4 | 0.566 | 0.000369 | 652000 | ~10 | EC50 (read off the curve) [6]: ~60 nM
B5 | 5.22 | 0.00106 | 203000 | ~4 | EC50 (read off the curve) [6]: ~50 nM
B6 | 4.51 | 0.000825 | 183000 | ~2 | EC50 (read off the curve) [6]: ~20 nM
B7 | 5.69 | 0.00146 | 256000 |  | EC50 (read off the curve) [6]: ~70 nM
B8 | 0.486 | 0.000325 | 668000 | ~9 | EC50 (read off the curve) [6]: ~50 nM
B9 | 0.655 | 0.000288 | 440000 | ~30 | 
B10 | 3.31 | 0.00112 | 339000 | ~30 | 
B11 | 3.79 | 0.00176 | 463000 |  | 
B12 |  |  |  |  | Kd [7]: 2.56 nM; koff [7]: 0.00137 s⁻¹; kon [7]: 535000 M⁻¹ s⁻¹
B13 | 3.58 | 0.000334 | 93300 |  | 
B14 | 5.95 | 0.000345 | 58100 |  | 
B15 | 3.4 | 0.000433 | 127000 |  | 
B16 | 1.93 | 0.000376 | 195000 |  | Kd [2]: 1.93 nM; koff [2]: 0.000376 s⁻¹; kon [2]: 195000 M⁻¹ s⁻¹
B17 |  |  |  |  | Kd [2]: 4.49 nM; koff [2]: 0.00173 s⁻¹; kon [2]: 386000 M⁻¹ s⁻¹
B18 |  |  |  |  | Kd [7]: 11 nM; koff [7]: 0.00606 s⁻¹; kon [7]: 553000 M⁻¹ s⁻¹
